# B1: JaWa: PaDa-I variant with added mutations G241D and R257K, SEQ ID NO: 24 (protein)
# chain: MKYFPLFPTLVYAVGVVAFPDYASLAGLSQQELDAIIPTLEAREPGLPPGPLENSSAKLVNDEAHPWKPLRPGDIRGPCPGLNTLASHGYLPRNGVATPAQIINAVQEGFNFDNQAAIFATYAAHLVDGNLITDLLSIGRKTRLTGPDPPPPASVGGLNEHGTFEGDASMTRGDAFFGNNHDFNETLFEQLVDYSNRFGGGKYNLTVAGELRFKRIQDSIATNPNFSFVDFRFFTAYGETTFPANLFVDGRRDDGQLDMDAARSFFQFSRMPDDFFRAPSPRSDTGVEVVVQAHPMQPGKNVGKINSYTVDPTSSDFSTPCLMYEKFVNITVKSLYPNPTVQLRKALNTNLDFLFQGVAAGCTQVFPYGRD
# What was measured:
# Assay type in all cases: biochemical
# [1] = Dual colorimetric HTS, naphthalene-Fast Red (peroxygenase activity on microplate); settings: parental PaDa-I; S. cerevisiae microcultures
# Description: (§1) The mother plates were centrifuged (Eppendorf 5810R centrifuge, Germany) for 10 minutes at 3,500 RPM and 4° C. 20 μL of supernatant were transferred from these mother plates to two replica daughter plates with the help of a Freedom EVO liquid handling robot (Tecan, Switzerland).
# (§2) The plates were briefly agitated and initial absorbance was measured at 469 nm and 510 nm, respectively, using a plate reader for such purpose ([…]ax Plus 384, Molecular Devices, USA). […] The plates were kept at room temperature until they turned orange (DMP) or red (naphthol-Fast Red), at which time the absorbance was newly measured. The values were normalised against the parental of each plate. In order to rule out false positives, two re-screenings were carried out, in addition to a third re-screening wherein kinetic stability was determined (T50) (P. Molina-Espeja, et al. Appl. Environ. Microbiol. 2014. 80, 3496-3507).
# [2] = Dual colorimetric HTS, DMP (peroxidase activity on microplate); settings: parental PaDa-I; S. cerevisiae microcultures
# Description: as §1, §2
# [3] = 4-AAP assay with propranolol in the presence of ascorbic acid (peroxygenase activity); settings: 0.2 μM pure variant, 5 mM propranolol, 2 mM H2O2, with and without 4 mM ascorbic acid
# Description: FIG. 9 Assay of 4-AAP (4-aminoantipyrine) with different pure UPO variants (AaeUPO1, PaDa-1 and JaWa). […] Each reaction was performed in triplicate.
# The mother plates were centrifuged (Eppendorf 5810R centrifuge, Germany) for 10 minutes at 3,500 RPM and 4° C. 20 μL of supernatant of these mother plates were transferred to two replica daughter plates with the help of a Freedom EVO liquid-handling robot (Tecan, Switzerland).
# Without ascorbic, the plates were incubated for 30 minutes and with ascorbic for 60 minutes. […] The plates were briefly agitated and absorbance measured at 530 nm, using a plate reader for such purpose ([…]ax Plus 384, Molecular Devices, USA). The values were normalised against the parental of each plate. To rule out false positives, re-screenings were carried out, in addition to a third re-screening wherein kinetic stability was determined (T50) (P. Molina-Espeja, et al. Appl. Environ. Microbiol. 2014. 80, 3496-3507).
# [4] = Propranolol transformation reaction analysed by HPLC-PDA; settings: absence of ascorbic acid
# Description: FIG. 13 Chromatogram showing the enzyme reactions.
# (§3) The reactions were analysed by means of chromatography in reverse phase (HPLC). The equipment was composed of a tertiary pump (Varian-Agilent Technologies, USA) coupled to an autosampler (Merck Millipore, MA, USA); for the separation, a Zorbax Eclipse plus C18 column (15 cm×4.6 cm) at 40° C. was used and the detection was performed using a photodiode detector (PDA) (Varian, Agilent Technologies, USA). The mobile phase selected was a gradient from 10% methanol and 90% ddH2O (in both cases with 0.1% of acetic acid) up to 90% methanol and 10% ddH2O at a flow rate of 0.8 mL/min. The reaction was quantified at 280 nm (based on HPLC standards). […] The standard deviations were less than 5% in all cases.
# [5] = Total turnover number (TTN) for synthesis of 5′-hydroxypropranolol from propranolol; settings: 0.03 μM enzyme, propranolol, 2 mM H2O2 added every 10 minutes
# Description: FIG. 15 Calculation of the total turnover number (TTN) of AaeUPO and SoLo.
# as §3
molecule,measurement,setting,value
B1,peroxygenase activity on microplate relative to parental,[1],doubled that of its parental
same,peroxidase activity on microplate relative to parental,[2],reduced to half
same,activity against propranolol in 4-AAP assay among pure UPO variants,[3],greatest activity against propranolol
same,regioselectivity against 5′-hydroxypropranolol,"[4]; 0.03 μM enzyme, 4 mM propranolol, 2 mM H2O2",99%
same,amount of 5′-hydroxypropranolol produced,"[4]; compared among AaeUPO, PaDa-I, JaWa, SoLo",produce the largest amount of 5′-hydroxypropranolol
same,"TTNs, With ascorbic acid",[5]; 4 mM ascorbic acid,"48,000"
same,"TTNs, Without ascorbic acid",[5]; absence of ascorbic acid,"15,000"

# Source: patent US10876098B2, “Polynucleotide, host cell and a method to recombinantly produce the protein encoded by said polynucleotide having peroxygenative activity” (CONSEJO SUPERIOR DE INVESTIGACIONES CIENTIFICAS (CSIC), priority 2015, dated 2020)
